Assays:
[1] = target: T1, Anti-CD28 Fab (SEQ ID NOs: 202, 203); experiment: phage ELISA on captured Fab, wells pre-incubated with CD28 antigen (competitor: CD28);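 further: bound clonal phage detected with an HRP-linked anti-M13 antibody, compared against wells that received blocking buffer alone without CD28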
T1 construct: biotinylated and captured on neutravidin coated plates in the phage ELISA
Procedure: (§1) Clonal phage were harvested as crude supernatants and screened via standard ELISAs. […] Prior to the addition of clonal phage, wells were incubated with blocking buffer and CD28 antigen or blocking buffer alone. Without washing or aspirating, clonal phage supernatants were then added to the wells and incubated for a short time. Wells were then washed followed by detection of bound phage using a horse radish conjugated anti-M13 antibody.

[2] = target: T1, Anti-CD28 Fab (SEQ ID NOs: 202, 203); experiment: phage ELISA on captured biotinylated Fab;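 further: wells preblocked with or without CD28 antigen, then clonal phage supernatant added briefly, washed, and bound phage read out by ELISA using HRP-linked anti-M13 antibody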
Procedure: as §1

T1 sequence (VH, as listed by the source, chain 1 of 2): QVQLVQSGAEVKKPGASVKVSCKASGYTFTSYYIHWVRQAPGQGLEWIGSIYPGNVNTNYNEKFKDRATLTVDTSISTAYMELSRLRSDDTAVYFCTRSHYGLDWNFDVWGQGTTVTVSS
T1 sequence (VL, as listed by the source, chain 2 of 2): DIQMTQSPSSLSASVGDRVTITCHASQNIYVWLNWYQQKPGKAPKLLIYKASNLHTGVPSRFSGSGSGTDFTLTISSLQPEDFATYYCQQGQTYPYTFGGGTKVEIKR

Row | Binder | Anti-CD28 Fab signal in the presence of CD28 [1] | Anti-CD28 Fab signal [2]
1 | YCDGHSDEYMAKCL [Phage-185] | 0.07 | 2.14
2 | YCDGHLEEYKQKCL [Phage-165] | 0.08 | 2.18
3 | YCAGHLPEYMQKCL [Phage-182] | 0.09 | 2.15
4 | YCEGHSAEYMAKCL [Phage-184] | 0.06 | 2.14
5 | YCDGHSAEYMSKCL [Phage-204] | 0.06 | 2.1
6 | YCDGHSAEYMMKCL [Phage-192] | 0.08 | 2.12
7 | YCDGHTQEYIAKCL [Phage-167] | 0.06 | 2.17
8 | YCDGHSQEYIAKCL [Phage-265] | 0.07 | 1.99
9 | YCEGHAEEYMQKCL [Phage-163] | 0.06 | 2.18
10 | YCEGHLPQYLAKCL [Phage-190] | 0.1 | 2.12
11 | YCMGHLPQYMEKCL [Phage-212] | 0.08 | 2.08
12 | YCMGHLPQYMQKCL [Phage-166] | 0.11 | 2.18
13 | YCVGHLPQYMEKCL [Phage-267] | 0.08 | 1.98
14 | YCDGHSIEYRWKCL [Phage-162] | 0.06 | 2.18
15 | YCDGHLPQYKAKCL [Phage-160] | 0.09 | 2.19
16 | YCDGHAVEYMAKCL [Phage-161] | 0.1 | 2.18
17 | YCAGHLPEYFLKCL [Phage-156] | 0.08 | 2.19
18 | YCDGHAPEYIYKCL [Phage-164] | 0.06 | 2.18
19 | YCDGHSPEYMTKCL [Phage-294] | 0.07 | 1.93
20 | YCDGHSPLYIWKCL [Phage-157] | 0.09 | 2.19
21 | YCDGHSPDYIWKCL [Phage-289] | 0.1 | 1.93
22 | YCDGHLPEYIEKCL [Phage-159] | 0.07 | 2.19

— patent US20260274955A1 (JANUX THERAPEUTICS, published 2026)
